Consider 14 sequences from the DeepSol protein solubility set.

The data set can be described thus: soluble on expression in E. coli; label from the status in PepcDB or PDB records.
Regarding “MSRDPTLILDESNLVIGKDGRVHYTFTTEDDNPKVRLASKCLGTAHFNQLMIERGDQATSYVAPVVVEGTGNPTGLFKDLKEISLELTDTANSQLWSKIKLTNRGMLQEYYDGKIKTEIVNSARGVATRISEDTDKKLALINDTIDGIRREYRDADRKLSASYQAGIEGLKATMANDKIGLQAEIKASAQGLSQKYDDELRKLSAKITTTSSGTTEAYESKLAGLRAEFTRSNQGTRTELESQISGLRAVQQSTASQISQEIRDREGAVSRVQQSLESYQRRMQDAEENYSSLTHTVRGLQSDVGSPTGKIQSRLTQLAGQIEQRVTRDGVMSIISGAGDSIKLAIQKAGGINAKMSGNEIISAINLNSYGVTIAGKHIALDGNTTVNGTFTTKIAEAIKIRADQIIAGTIDAARIRVINLNASSIVGLDANFIKAKIGYAITDLLEGKVIKARNGAMLIDLNTAKMDFNSDATINFNSKNNALVRKDGTHTAFVHFSNATPKGYTGSALYASIGITSSGDGVNSASSGRFAGLRSFRYATGYNHTAAVDQTEIYGDNVLVVDDFNITRGFKFRPDKMQKMLDMNDLYAAVVALGRCWGHLANVGWNTAHSNFTSAVNRELNNYITKI”, the “soluble on expression in E. coli” value is given as “not soluble”.
In the case of “MSRGTQACINAAHTVSGIIGDLDTTIMFATAGTLHSDGDGSFADHREHILQTAKALVEDTKVLVTGAAGTQDQLANAAQNAVSTITQLAEAVKRGACSLGSTQPDSQVMVINAVKDVASALGDLINCTKLASGKSINDPSMQDLKESARVMVLNVSSLLKTVKAVEDEHTRGTRAMEATVEAISQEIRALEHHHHHHHH”, the “soluble on expression in E. coli” value was “soluble”.
The result for “MSRLSEPSPYVEFDRRQWRALRMSTPLALTEEELVGLRGLGEQIDLLEVEEVYLPLARLIHLQVAARQRLFAATAEFLGEPQQNPDRPVPFIIGVAGSVAVGKSTTARVLQALLARWDHHPRVDLVTTDGFLYPNAELQRRNLMHRKGFPESYNRRALMRFVTSVKSGSDYACAPVYSHLHYDIIPGAEQVVRHPDILILEGLNVLQTGPTLMVSDLFDFSLYVDARIEDIEQWYVSRFLAMRTTAFADPESHFHHYAAFSDSQAVVAAREIWRTINRPNLVENILPTRPRATLVLRKDADHSINRLRLRKL” reads “soluble”.
“MSRPLSIALISETYPPEVNGVANTLGRLHAGLQQLGHRVQVVRPRQPGDDGRRSDAELVLTRGWPLPGYPGLQWGMSSLHKLLRCWKRQRPDVLYIATEGPLGFSALRAARRLGIPAVSGFHTNFQQYSEHYGFGPLTRLVTGYLRWFHNRTQMTLVPSGSQRMELQRRGFERLNLLSRGVDSQLFHPSRRDPELRRRWGLGEQDIAVLHVGRLAAEKNLGLLGGTFRALCAAHPQLKLRLVLVGDGPERKHLERDLPEALFCGVQRGETLAAHYASGDLFLFPSLSETFGNVVLEAQAAGLAVVAFDQAAAGQHIRHGHNGVLAAPGDKSGFVEVASWLLDDQERLRRVRLNARQHASRQGWDSIVEHFQNYLEDACASPLVQPARSKPERPPAEDGGALPRSRELEHHHHHH”: the “soluble on expression in E. coli” value was “not soluble”.
The result for “MSRPRKRLAGTSGSDKGLSGKRTKTENSGEALAKVEDSNPQKTSATKNCLKNLSSHWLMKSEPESRLEKGVDVKFSIEDLKAQPKQTTCWDGVRNYQARNFLRAMKLGEEAFFYHSNCKEPGIAGLMKIVKEAYPDHTQFEKNNPHYDPSSKEDNPKWSMVDVQFVRMMKRFIPLAELKSYHQAHKATGGPLKNMVLFTRQRLSIQPLTQEEFDFVLSLEEKEPS” reads “soluble”; that for “MSRSPDAKEDPVECPLCMEPLEIDDINFFPCTCGYQICRFCWHRIRTDENGLCPACRKPYPEDPAVYKPLSQEELQRI”, “soluble”.
Next, “MSRTAKPQNGRRRFLRDVVRTAGGLAAVGVALGLQQQTARASGVRLRPPGALNENVFASACVRCGQCVQACPYDTLKLATLASGLSAGTPYFVARDIPCEMCEDIPCAKVCPSGALNKDIASIDDSRMGLAVLLDQENCLNFQGLRCDVCYRECPKIDEAITLELDRNMRTGKHARFLPTVHSDACTGCGKCEKVCVLEQPAIKVLPLSLAKGELGHHYRFGWLEGKDGKS”: “not soluble”.
For “MSRTMAEVNRLLKKTAGLINKDTESPFQGEFRVGVDLGTADIQTIVLDADGNPLAGFMDWANVVRDGVVVDFFGASQIVREQVRRASAKLGIQIEQVTTSFPPGTDSRISTNVIEAAGLEVAGVIDEPSSVAQLLQLDHAAVVDIGGGTTGTAIIEEGRVVRSMDDATGGRHITLTLAGHFGLPYEEAEEMKRTSKDLALCRLAAPVIAKMADIVHGHIAGHKVPAIYLTGGSCALPGFLEVFAAEFPGIEIVMPSHPLYLTPLAIATYSDVLQTREQRVGLEHHHHHH”, the “soluble on expression in E. coli” value is reported as “not soluble”.
Next, “MSSAGEANCAMIGGSLSAARQLDGSVIGMCALPNGKRCSEQSLAAGSCGSY”: “not soluble”; “MSSALTDLFPLPIVQAPMAGGVSVPQLAAAVCEAGGLGFLAAGYKTADGMYQEIKRLRGLTGRPFGVNVFMPQPELAESGAVEVYAHQLAGEAAWYETELGDPDGGRDDGYDAKLAVLLDDPVPVVSFHFGVPDREVIARLRRAGTLTLVTATTPEEARAVEAAGADAVIAQGVEAGGHQGTHRDSSEDDGAGIGLLSLLAQVREAVDIPVVAAGGIMRGGQIAAVLAAGADAAQLGTAFLATDESGAPGPHKRALTDPLFARTRLTRAFTGRPARSLVNRFLREHGPYAPAAYPDVHHLTSPLRKAAAKAGDAQGMALWAGQGHRMARELPAGRLVEVLAAELAEARTALSDASRENESRKGHHHHHH”: “soluble”; “MSSAPNDDCEIDKGTPSTASLFTTLMLSQPSSSTAVLQCTYCGSSCTSSQLQTCLFCGTVAYCSKEHQQLDWLTHKMICKSLQTSGMVPSNLMPQAAPAVMAPIPPTVSFDDPALTTSLLLSLQNNPILNQTISNFPPTFSITSKTEPEPSIPIQIPQRISSTSTVPFSSEGSAFKPYRNTHVFNSISSESMSSMCTSHEASLEHMSSASLAMFPTSSTAQSDISRLAQVLSLAGDSPASLALVTTSVPSTASTATIPPPATTTSSATSSGKSETITVGKEKIIQTDDPDIQIIETEGGSKPTVSRTRKRPTPSNSADPKINYKDHNKNVVYSTTLQEHQKHLQNRGLALSIHQAMVLRLRYIAEHVIRSLNEFGWAVVDNFLGSDHYKFTAKEIERLYERGLFSPGQLMEAKHKDEFHIKDIRSDHIYWYDGYDGRAKDAATVRLLISMIDSVIQHFKKRIDHDIGGRSRAMLAIYPGNGTRYVKHVDNPVKDGRCITTIYYCNENWDMATDGGTLRLYPETSMTPMDIDPRADRLVFFWSDRRNPHEVMPVFRHRFAITIWYMDKSERDKALAKGKESDAACASKKENDPTSSSLNSLIGSLLRPRKNPSTHDLSKLDLRLFPSTSSDPALVSAADEDRVDISADFQSTSSLAHPESTDSGVSLSTFNVAHNHMERTTSLQSISDHFRSERSHERRSSTSSDQDLDEGLPPPPSTNPEYYI”: “not soluble”.
“MSSARRCLFGRPTPEQRSRTRIWLEDAVKRMRQEESQKWGFDFELETPLPSSAGFVYEVIPENCVPEFYRTKVLTVRTTCSSLDISSTTLTPLSSPSTSDKEEPSLMDPNSSFEDEEEPKKWQFREPPTPRKTPTKRQQKMTDFMAVSRKKNSLSPNKLSPVNVIFTPKSRRPTIRTRSSCSPY”: the “soluble on expression in E. coli” value is recorded as “not soluble”.
Next, “MSSATTNSKIIHATRQHVYEALTQKEALEFWLAPDQMTGKIHDFDLSVGGGYTMSLFYTDNSIKGKTSGNEDRYTSTFIELQPYEKVVHSITFQSEKKEFEEAMIMEVFLEEKGKDVTNVTIFFKNIPAGITPEDNEAGTKESLDKLARYLENNNRSASEKKLEHHHHHH”: “soluble”; “MSSDDEIYNENNDLDEEFSDDMDQQSGSSGESQGKANYEILDPTALESDMSKTISEVQAILQVEPGICRILLHKFKWNKDRLLDKFYEHSDTTEFLAEAQVIPKTSSSEEAAGSSAPPPGGDAECDVCCSMTRLSGLACAHRACDECWKAYLTEKIVDVGQSEIECMMMDCKLLIEDEKVMSYITDPFVIAAYRKLIISSYVETNSQLKWCPGAGCGKAVKGEPSDREPAVCTCGERFCFACAQDWHDPLSCRHMKMWRKKCSDDSETLNWINANTKPCPKCSVTIEKNGGCNHMSCKSSSCRYEFCWLCLGDWKNHAQCNRYVEDDNKTDSRSLSRKNLQRYLFYYNRFMAHQNSMKLEGKLYAKVEVKMDLMQALSMSWIEVQFLRRAVDALCECRRTLKYAYAFAYYLEANNMTTLFETNQSDLELATEQLSGMLEGDLEDNDLAELKRKVQDKYRYVELRRKKMLDHCAEGVELDSWVFCE”: “not soluble”.
